Experimental data published in patent US20150064134A1.

What was measured:
Assay in all cases: cell-based or functional assay
CHK2(R145W)(h) (human) = CHK2(R145W)(h) (human) (UniProt O96017)
DCAMKL2(h) (human) = target: T1, DCAMKL2(h) (human) (UniProt Q8N568)
T1 sequence (looked up): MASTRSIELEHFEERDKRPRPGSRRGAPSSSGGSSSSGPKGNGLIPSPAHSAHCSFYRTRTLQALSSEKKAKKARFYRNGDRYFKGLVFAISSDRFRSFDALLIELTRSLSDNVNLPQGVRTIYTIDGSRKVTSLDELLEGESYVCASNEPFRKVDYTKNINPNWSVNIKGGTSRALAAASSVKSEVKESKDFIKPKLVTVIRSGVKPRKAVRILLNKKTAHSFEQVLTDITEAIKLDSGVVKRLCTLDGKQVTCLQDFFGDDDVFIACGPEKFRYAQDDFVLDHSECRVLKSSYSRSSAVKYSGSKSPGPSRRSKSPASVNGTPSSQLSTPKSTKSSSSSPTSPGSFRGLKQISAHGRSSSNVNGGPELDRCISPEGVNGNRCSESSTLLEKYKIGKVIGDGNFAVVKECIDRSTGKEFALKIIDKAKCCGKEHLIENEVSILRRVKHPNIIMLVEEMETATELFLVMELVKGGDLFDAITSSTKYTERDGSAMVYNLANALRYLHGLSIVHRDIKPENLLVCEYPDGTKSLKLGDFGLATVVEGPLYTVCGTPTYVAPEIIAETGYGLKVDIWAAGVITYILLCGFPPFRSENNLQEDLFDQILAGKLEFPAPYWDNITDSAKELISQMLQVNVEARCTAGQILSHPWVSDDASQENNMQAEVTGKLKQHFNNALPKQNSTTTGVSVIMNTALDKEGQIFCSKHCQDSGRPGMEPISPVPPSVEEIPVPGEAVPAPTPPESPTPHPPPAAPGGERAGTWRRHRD

JNK2α2(h) (human) = JNK2α2(h) (human) (UniProt P45984)
LKB1(h) (human) = target: T2, LKB1(h) (human) (UniProt Q15831)
T2 sequence (looked up): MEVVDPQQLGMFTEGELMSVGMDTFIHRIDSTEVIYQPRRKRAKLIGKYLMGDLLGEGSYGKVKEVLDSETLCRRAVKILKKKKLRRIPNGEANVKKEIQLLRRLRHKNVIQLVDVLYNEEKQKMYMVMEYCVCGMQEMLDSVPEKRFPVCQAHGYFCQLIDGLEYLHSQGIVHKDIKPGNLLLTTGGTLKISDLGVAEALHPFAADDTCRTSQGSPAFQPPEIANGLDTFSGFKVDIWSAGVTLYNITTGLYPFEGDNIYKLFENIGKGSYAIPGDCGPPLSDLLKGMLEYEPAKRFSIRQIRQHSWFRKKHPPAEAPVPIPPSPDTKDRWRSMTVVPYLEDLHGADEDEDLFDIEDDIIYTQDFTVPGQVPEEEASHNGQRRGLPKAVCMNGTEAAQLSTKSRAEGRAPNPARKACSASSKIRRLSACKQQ

MAPKAP-K3(h) (human) = MAPKAP-K3(h) (human) (UniProt Q16644)
MINK(h) (human) = MINK(h) (human) (UniProt Q8N4C8)
MLK1(h) (human) = MLK1(h) (human) (UniProt P80192)
MST1(h) (human) = target: T3, MST1(h) (human) (UniProt Q13043)
T3 sequence (looked up): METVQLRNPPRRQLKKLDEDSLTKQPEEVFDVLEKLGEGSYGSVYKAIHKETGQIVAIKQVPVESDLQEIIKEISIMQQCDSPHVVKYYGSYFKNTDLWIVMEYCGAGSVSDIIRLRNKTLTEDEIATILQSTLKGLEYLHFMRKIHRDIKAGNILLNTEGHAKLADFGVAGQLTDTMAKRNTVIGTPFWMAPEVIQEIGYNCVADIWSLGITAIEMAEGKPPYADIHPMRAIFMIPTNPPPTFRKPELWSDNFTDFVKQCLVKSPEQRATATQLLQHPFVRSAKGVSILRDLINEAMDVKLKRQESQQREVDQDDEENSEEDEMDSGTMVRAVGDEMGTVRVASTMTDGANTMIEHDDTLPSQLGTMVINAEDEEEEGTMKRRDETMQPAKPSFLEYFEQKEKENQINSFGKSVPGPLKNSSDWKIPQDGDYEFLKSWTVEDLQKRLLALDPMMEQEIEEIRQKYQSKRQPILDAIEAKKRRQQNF

NEK6(h) (human) = NEK6(h) (human) (UniProt Q9HC98)
PAK2(h) (human) = PAK2(h) (human) (UniProt Q13177)
PAK2(h) (human), sequence (Q13177 whole entry): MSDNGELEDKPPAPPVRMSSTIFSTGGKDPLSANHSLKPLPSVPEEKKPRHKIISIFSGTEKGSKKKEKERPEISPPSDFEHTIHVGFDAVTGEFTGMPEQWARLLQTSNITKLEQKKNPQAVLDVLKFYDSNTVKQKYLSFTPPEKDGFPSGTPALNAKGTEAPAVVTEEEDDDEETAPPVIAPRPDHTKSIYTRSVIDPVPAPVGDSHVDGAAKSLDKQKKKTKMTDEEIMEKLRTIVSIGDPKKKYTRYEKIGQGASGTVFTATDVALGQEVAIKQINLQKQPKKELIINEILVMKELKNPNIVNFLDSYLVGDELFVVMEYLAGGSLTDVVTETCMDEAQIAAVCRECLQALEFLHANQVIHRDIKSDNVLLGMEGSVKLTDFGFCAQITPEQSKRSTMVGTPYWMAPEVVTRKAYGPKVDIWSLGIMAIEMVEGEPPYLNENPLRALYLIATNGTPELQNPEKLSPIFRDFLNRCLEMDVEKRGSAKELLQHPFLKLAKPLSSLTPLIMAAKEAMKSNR

PKG1β(h) (human) = target: T4, PKG1β(h) (human) (UniProt Q13976)
T4 sequence (looked up): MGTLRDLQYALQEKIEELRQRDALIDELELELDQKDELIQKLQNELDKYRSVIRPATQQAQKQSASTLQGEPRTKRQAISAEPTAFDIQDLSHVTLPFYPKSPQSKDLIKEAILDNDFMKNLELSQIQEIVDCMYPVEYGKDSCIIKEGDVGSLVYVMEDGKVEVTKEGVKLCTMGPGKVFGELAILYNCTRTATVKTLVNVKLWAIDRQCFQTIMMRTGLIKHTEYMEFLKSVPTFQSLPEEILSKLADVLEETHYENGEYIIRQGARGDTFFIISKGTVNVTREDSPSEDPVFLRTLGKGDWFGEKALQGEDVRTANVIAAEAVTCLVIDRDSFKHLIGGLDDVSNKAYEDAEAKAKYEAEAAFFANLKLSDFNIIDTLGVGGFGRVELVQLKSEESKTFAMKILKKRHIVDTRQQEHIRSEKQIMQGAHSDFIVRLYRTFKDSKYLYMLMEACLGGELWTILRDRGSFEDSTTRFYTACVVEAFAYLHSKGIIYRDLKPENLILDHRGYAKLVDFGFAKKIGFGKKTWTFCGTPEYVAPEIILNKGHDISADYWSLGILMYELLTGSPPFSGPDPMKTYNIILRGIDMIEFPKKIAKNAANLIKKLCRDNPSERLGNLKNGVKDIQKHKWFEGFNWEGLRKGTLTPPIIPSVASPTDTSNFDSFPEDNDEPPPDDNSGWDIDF

Rsk3(h) (human) = Rsk3(h) (human) (UniProt Q15349)
Rsk3(h) (human), sequence (Q15349 whole entry): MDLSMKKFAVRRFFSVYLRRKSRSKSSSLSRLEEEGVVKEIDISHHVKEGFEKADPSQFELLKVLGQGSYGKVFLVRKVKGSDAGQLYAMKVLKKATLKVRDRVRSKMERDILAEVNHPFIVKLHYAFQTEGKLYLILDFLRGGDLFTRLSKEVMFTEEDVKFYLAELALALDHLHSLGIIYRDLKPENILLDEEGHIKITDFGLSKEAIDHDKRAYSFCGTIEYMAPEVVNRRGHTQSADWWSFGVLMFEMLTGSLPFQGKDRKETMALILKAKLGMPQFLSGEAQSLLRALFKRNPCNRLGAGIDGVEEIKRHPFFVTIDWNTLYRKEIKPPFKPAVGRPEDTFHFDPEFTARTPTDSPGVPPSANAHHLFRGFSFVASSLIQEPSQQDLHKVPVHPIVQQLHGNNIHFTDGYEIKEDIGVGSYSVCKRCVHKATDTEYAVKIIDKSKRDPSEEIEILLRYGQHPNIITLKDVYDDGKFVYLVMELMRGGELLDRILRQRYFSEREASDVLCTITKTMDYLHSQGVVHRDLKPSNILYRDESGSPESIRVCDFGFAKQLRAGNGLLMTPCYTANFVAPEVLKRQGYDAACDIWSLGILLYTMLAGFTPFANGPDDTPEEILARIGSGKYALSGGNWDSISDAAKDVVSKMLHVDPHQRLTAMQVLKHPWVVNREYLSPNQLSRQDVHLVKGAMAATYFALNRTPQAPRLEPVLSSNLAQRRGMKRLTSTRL

CHK2(R145W)(h) (human), sequence (O96017 5-543 R145W limits assumed): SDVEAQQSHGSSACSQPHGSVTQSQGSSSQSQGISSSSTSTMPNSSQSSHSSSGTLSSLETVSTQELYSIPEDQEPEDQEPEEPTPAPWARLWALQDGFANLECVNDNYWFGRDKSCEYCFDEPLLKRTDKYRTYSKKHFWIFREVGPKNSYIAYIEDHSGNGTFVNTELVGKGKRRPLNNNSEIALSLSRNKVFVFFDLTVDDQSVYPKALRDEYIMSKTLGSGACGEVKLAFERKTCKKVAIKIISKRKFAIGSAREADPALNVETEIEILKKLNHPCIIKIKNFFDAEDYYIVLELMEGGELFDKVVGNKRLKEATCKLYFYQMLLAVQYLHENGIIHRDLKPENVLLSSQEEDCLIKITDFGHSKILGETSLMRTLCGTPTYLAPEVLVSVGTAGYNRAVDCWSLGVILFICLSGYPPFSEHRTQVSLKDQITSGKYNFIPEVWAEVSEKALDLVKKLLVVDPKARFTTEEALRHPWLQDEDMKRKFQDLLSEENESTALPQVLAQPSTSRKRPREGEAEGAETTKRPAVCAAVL

Row | % activity at 100 µM (CHK2(R145W)(h) (human)) [%] | % activity at 100 µM (DCAMKL2(h) (human)) [%] | % activity at 100 µM (JNK2α2(h) (human)) [%] | % activity at 100 µM (LKB1(h) (human)) [%] | % activity at 100 µM (MAPKAP-K3(h) (human)) [%] | % activity at 100 µM (MINK(h) (human)) [%] | % activity at 100 µM (MLK1(h) (human)) [%] | % activity at 100 µM (MST1(h) (human)) [%] | % activity at 100 µM (NEK6(h) (human)) [%] | % activity at 100 µM (PAK2(h) (human)) [%] | % activity at 100 µM (PKG1β(h) (human)) [%] | % activity at 100 µM (Rsk3(h) (human)) [%] | Substance
1 | 33 | 81 | 98 | 101 | 3 | 48 | 40 | 14 | 82 | 65 | 50 | 76 | MMI-0300 (peptide)
2 | 31 | 70 | 96 | 89 | 7 | 52 | 33 | 6 | 85 | 59 | 53 | 71 | MMI-0400 (peptide)
3 | 3 | 56 | 81 | 51 | 9 | 5 | 43 | 3 | 49 | 44 | 24 | 23 | MMI-0500 (peptide)
